Experiments:
[1] = test system: NCp15 (HIV-1); assay: Trp fluorescence quenching titration
[2] = target: NCp7 (HIV-1) (UniProt P12493); assay: Trp fluorescence quenching titration
[3] = target: NCp9 (HIV-1) (UniProt P12493); assay: Trp fluorescence quenching titration
[4] = test system: NCp15 (HIV-1); assay: ethenoA fluorescence enhancement titration; conditions: 1,N6-ethenoadenosine homopolymer (RNA)
[5] = target: NCp7 (HIV-1) (UniProt P12493); assay: ethenoA fluorescence enhancement titration; conditions: 1,N6-ethenoadenosine homopolymer (RNA)
[6] = target: NCp9 (HIV-1) (UniProt P12493); assay: ethenoA fluorescence enhancement titration; conditions: 1,N6-ethenoadenosine homopolymer (RNA)
[7] = test system: NCp15 (HIV-1); assay: single-molecule DNA stretching
[8] = target: NCp7 (HIV-1) (UniProt P12493); assay: single-molecule DNA stretching
[9] = target: NCp9 (HIV-1) (UniProt P12493); assay: single-molecule DNA stretching

poly(dT)
Ka [1]: 1.4e+09 M⁻¹ | Ka [2]: 9.3e+07 M⁻¹ | Ka [3]: 1.1e+08 M⁻¹

5'LTR/U3 single strand
Ka [2]: 2.2e+08 M⁻¹ | Ka [3]: 3.9e+08 M⁻¹

3'LTR/U5 single strand
Ka [2]: 4.3e+07 M⁻¹ | Ka [3]: 6.2e+07 M⁻¹

poly(etheno-A)
Ka [4]: 1.7e+09 M⁻¹ | Ka [5]: 1.4e+09 M⁻¹ | Ka [6]: 3.8e+09 M⁻¹

lambda-DNA
Ka [7]: 1.04e+08 M⁻¹ | Ka [8]: 1.22e+08 M⁻¹ | Ka [9]: 1.4e+08 M⁻¹
